Experimental findings from publication PMC4066437, “Oxidation of cellular amino acid pools leads to cytotoxic mistranslation of the genetic code” (eLife, 2014) are described below.

Common to all, as to experiment: ATP/PPi exchange (amino acid activation)
Substrate in data set [1]: NC(Cc1cccc(O)c1)C(=O)O
The class given is biochemical, Saccharomyces cerevisiae. The conditions noted are these: 2 mM ATP, 2 mM [32P]PPi, 10 mM MgCl2, pH 7.2, 37 °C, D,L-m-Tyr varied 20-2000 µM. From the text:
(§1) ATP/PPi exchange (amino acid activation) on ScctPheRS (Saccharomyces cerevisiae cytoplasmic PheRS; Yeast ct)

Substrate in data set [2]: N[C@@H](Cc1ccccc1)C(=O)O
The class given is biochemical, Saccharomyces cerevisiae. The conditions noted are these: 2 mM ATP, 2 mM [32P]PPi, 10 mM MgCl2, pH 7.2, 37 °C, stereochemistry of Phe not given.
Description: as §1

Substrate in data set [3]: NC(Cc1cccc(O)c1)C(=O)O
The class given is biochemical, Escherichia coli. The conditions noted are these: 2 mM ATP, 2 mM [32P]PPi, 10 mM MgCl2, pH 7.2, 37 °C, D,L-m-Tyr varied 20-2000 µM. From the text:
(§2) ATP/PPi exchange (amino acid activation) on EcPheRS (E. coli phenylalanine-tRNA synthetase)

Substrate in data set [4]: N[C@@H](Cc1ccccc1)C(=O)O
The class given is biochemical, Escherichia coli. The note with it: 2 mM ATP, 2 mM [32P]PPi, 10 mM MgCl2, pH 7.2, 37 °C, stereochemistry of Phe not given.
Description: as §2

B1: ScctPheRS (Saccharomyces cerevisiae cytoplasmic PheRS; Yeast ct) (Saccharomyces cerevisiae S288C) (protein)
chain: SDFQLEILKKLDELDEIKSTLATFPQHGSQDVLSALNSLKAHNKLEFSKVDTVTYDLTKEGAQILNEGSYEIKLVKLIQELGQLQIKDVMSKLGPQVGKVGQARAFKNGWIAKNASNELELSAKLQNTDLNELTDETQSILAQIKNNSHLDSIDAKILNDLKKRKLIAQGKITDFNVTKGPEFSTDLTKLETDLTSDMVSTNAYKDLKFKPYNFNSQGVQISSGALHPLNKVREEFRQIFFSMGFTEMPSNQYVETGFWNFDALYVPQQHPARDLQDTFYIKDPLTADLPDDKTYMDNIKAVHEQGRFGSIGYRYNWKPEECQKLVLRTHSTAISARMLHDLAKDPKPTRLFSIDRVFRNEAVDATHLAEFHQVEGVLADYNITLGDLIKFMEEFFERMGVTGLRFKPTYNPYTEPSMEIFSWHEGLQKWVEIGNSGMFRPEMLESMGLPKDLRVLGWGLSLERPTMIKYKVQNIRELLGHKVSLDFIETNPAARLDEDLYE
notes: His-tagged purified cytoplasmic enzyme; (alpha beta)2 heterotetramer; with Phenylalanine--tRNA ligase beta subunit
The Km is the concentration of substrate that gives half-maximal velocity. For orientation: kcat means the maximal rate divided by the concentration of active sites. What is called kcat/Km is the second-order rate constant that governs catalysis at low substrate concentration. Turning to B1, in data set [1], the Km worked out at 1150 ± 230 µM, the kcat amounted to 26 ± 4 s⁻¹ and the kcat/Km was 23000 M⁻¹ s⁻¹. In data set [2], the Km was determined as 16 ± 2 µM, the kcat is 26 ± 4 s⁻¹ and the kcat/Km was found to be 1.6e+06 M⁻¹ s⁻¹.

B2: EcPheRS (E. coli phenylalanine-tRNA synthetase) (Escherichia coli K-12) (protein)
chain: MSHLAELVASAKAAISQASDVAALDNVRVEYLGKKGHLTLQMTTLRELPPEERPAAGAVINEAKEQVQQALNARKAELESAALNARLAAETIDVSLPGRRIENGGLHPVTRTIDRIESFFGELGFTVATGPEIEDDYHNFDALNIPGHHPARADHDTFWFDTTRLLRTQTSGVQIRTMKAQQPPIRIIAPGRVYRNDYDQTHTPMFHQMEGLIVDTNISFTNLKGTLHDFLRNFFEEDLQIRFRPSYFPFTEPSAEVDVMGKNGKWLEVLGCGMVHPNVLRNVGIDPEVYSGFAFGMGMERLTMLRYGVTDLRSFFENDLRFLKQFK
notes: His-tagged, from plasmid pQE31-EcFRS (pheS and pheT), dialysed against PPi; (alpha beta)2 heterotetramer; with Phenylalanine--tRNA ligase beta subunit
For the protein B2, in data set [3], the Km is on record as 247 ± 60 µM, the kcat came out at 2.1 ± 0.8 s⁻¹ and the kcat/Km was determined as 8000 M⁻¹ s⁻¹. In data set [4], the Km is 18 ± 4 µM, the kcat stood at 5.2 ± 2 s⁻¹ and the kcat/Km amounted to 290000 M⁻¹ s⁻¹.
